Common to all, as to conditions: both partners purified
The target in test [1] is T1, first WW domain of human YAP2 (YAP-WW1) (human, UniProt P46937-2 165-209).
T1 construct: also called hYAP-WW1; not shown: GST, N-terminal, cleaved; His tag, N-terminal, cleaved
As to the kind of experiment: ITC. Background: Isothermal titration calorimetry measures the heat released or taken up as one component is titrated into another.

The target in test [2] is T2, second WW domain of human YAP2 (YAP-WW2) (human, UniProt P46937-2 228-271).
T2 construct: also called hYAP-WW2; not shown: GST, N-terminal, cleaved; His tag, N-terminal, cleaved
T2 sequence (P46937 228-271): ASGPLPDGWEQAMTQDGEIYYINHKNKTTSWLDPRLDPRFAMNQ
As to the kind of experiment: ITC.

Test [3] has as its target T3, third WW domain of human NEDD4 (hNEDD4-WW3), unlabelled (human, UniProt P46934 834-878).
T3 construct: not shown: GST, N-terminal, cleaved; His tag, N-terminal, cleaved
As to the kind of experiment: ITC.

Test [4] concerns the target T1, first WW domain of human YAP2 (YAP-WW1). The experiment in a line: other fluorescence titration.
Test [5] has as its target T2, second WW domain of human YAP2 (YAP-WW2). The experiment in a line: other fluorescence titration.
The target in test [6] is T1, first WW domain of human YAP2 (YAP-WW1). As to the kind of experiment: other fluorescence titration; tryptophan fluorescence of the WW domain (20 uM), excitation 298 nm, centre of spectral mass against peptide concentration, one to one model; 20 mM sodium phosphate pH 7.0, 25 °C.
The target in test [7] is T2, second WW domain of human YAP2 (YAP-WW2). Described as above.

Values joined by “and” are separate entries in the source; they are usually repeats but may differ in a detail not shown here. Equal values may be shown once.

By Kd is commonly meant the free concentration of one partner at which half of the binding sites on the other are occupied at equilibrium, for simple one-to-one binding.

T3 sequence (P46934 834-878): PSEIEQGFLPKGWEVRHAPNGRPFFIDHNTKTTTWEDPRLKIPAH
T1 sequence (P46937 165-209): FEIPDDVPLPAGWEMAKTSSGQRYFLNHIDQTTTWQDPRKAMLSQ

B1: p53bp2 human peptide (peptide)
peptide: Ac-EYPPYPPPPYPSG-NH2
As to B1, the Kd is 3 µM and 1.1 µM and 1.8 µM in test [1]; 12 ± 0.6 µM in test [2]. The dH in test [1] was -14.6 kcal/mol and -15.9 kcal/mol and -13.1 kcal/mol; in test [2], -13.6 ± 0.239 kcal/mol.

B2: Rabies Late domain peptide (peptide)
peptide: DLWLPPPEYVPL
Consider B2, for which the Kd turned out to be 51 ± 1 µM in test [3] and 181 ± 5 µM in test [1]. Besides, the dH in test [3] was -15.7 ± 0.191 kcal/mol; in test [1] it was -15.2 ± 0.215 kcal/mol.

B3: Marburg Late domain peptide (peptide)
peptide: MQYLNPPPYADH
Regarding B3, the Kd stood at 51 ± 1 µM in test [3], 67 ± 4 µM in test [4] and 17 ± 1 µM in test [5]. This molecule also had a dH in test [3] of -17.5 ± 0.167 kcal/mol.

B4: HTLV1ter Late domain peptide (peptide)
peptide: Ac-PPPYVEPTAP-NH2
notes: source: synthetic peptide, bought: SynBioSci Corporation
Regarding B4, in test [3], the Kd was found to be 178 ± 3 µM and the dH is -17.7 ± 0.191 kcal/mol.

B5: Ebola Late domain peptide (peptide)
peptide: ILPTAPPEYMEA
As for B5, the Kd in test [3] was found to be 147 ± 4 µM; in test [4], 750 ± 10 µM; in test [5], 560 ± 30 µM. Further, the dH in test [3] is -12.1 ± 0.167 kcal/mol.

B6: HTLV1 Late domain peptide (peptide)
peptide: SDPQIPPPYVEP
Turning to B6, the dissociation constant Kd in test [3] stood at 61 ± 1 µM; in test [6], 308 ± 4 µM; in test [7] it was 260 ± 40 µM. The molecule further had a dH in test [3] of -16.3 ± 0.143 kcal/mol.

Source of the values: PMC6803667 (Scientific Reports, 2019).
